Laboratory results reported in paper PMC12439037 (RSC Chemical Biology, 2025).
Ends that are not written are not given here. * marks the point of attachment. Myristoyl = CCCCCCCCCCCCCC(=O)*

How the values were obtained:
Experiment in all cases: crystal structure
[1] = biological target: T1, human SIRT2 (residues 50–356) (human, UniProt Q8IXJ6 50-356)
T1 sequence (looked up): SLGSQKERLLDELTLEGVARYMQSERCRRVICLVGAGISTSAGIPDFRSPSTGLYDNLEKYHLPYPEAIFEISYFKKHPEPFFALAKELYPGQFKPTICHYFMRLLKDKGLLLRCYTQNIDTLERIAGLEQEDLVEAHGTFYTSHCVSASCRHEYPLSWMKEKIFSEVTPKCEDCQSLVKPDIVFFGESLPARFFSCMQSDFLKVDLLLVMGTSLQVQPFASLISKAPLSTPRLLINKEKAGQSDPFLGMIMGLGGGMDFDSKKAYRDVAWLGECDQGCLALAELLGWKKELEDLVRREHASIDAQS

[2] = biological target: T2, SIRT2^F96A (human SIRT2 residues 50–356, F96A) (human, UniProt Q8IXJ6 50-356, F96A)
T2 sequence (looked up): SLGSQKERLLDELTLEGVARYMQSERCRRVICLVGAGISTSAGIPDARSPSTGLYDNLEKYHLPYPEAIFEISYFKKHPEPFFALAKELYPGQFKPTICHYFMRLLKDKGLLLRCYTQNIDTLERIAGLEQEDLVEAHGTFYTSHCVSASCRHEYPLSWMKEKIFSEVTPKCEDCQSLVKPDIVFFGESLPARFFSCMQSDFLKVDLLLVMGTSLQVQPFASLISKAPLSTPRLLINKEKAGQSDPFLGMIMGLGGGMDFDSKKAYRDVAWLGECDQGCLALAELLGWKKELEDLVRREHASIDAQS

[3] = biological target: T3, SIRT2^H187A (human SIRT2 residues 50–356, H187A) (human, UniProt Q8IXJ6 50-356, H187A)
T3 sequence (looked up): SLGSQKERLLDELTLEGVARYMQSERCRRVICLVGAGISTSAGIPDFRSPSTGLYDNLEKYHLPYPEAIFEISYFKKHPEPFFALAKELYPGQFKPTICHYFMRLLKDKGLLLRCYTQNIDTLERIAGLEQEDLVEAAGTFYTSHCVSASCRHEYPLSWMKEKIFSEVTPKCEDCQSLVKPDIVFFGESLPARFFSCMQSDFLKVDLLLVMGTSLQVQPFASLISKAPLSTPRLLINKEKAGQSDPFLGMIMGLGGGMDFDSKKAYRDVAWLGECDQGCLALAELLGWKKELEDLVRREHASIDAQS

Measured: binding result

APRK(Myristoyl)QLA [H3K18myr peptide (APRKmyrQLA)]
binds: [1] | [2] | [3]
